Results on 3 molecules are retold here after patent US20260242721A1, “A SYNTHETIC CELLULAR ADVANCED SIGNAL ADAPTER (SCASA) SYSTEM” (Danmarks Tekniske Universitet, priority 2023, published 2026).

Data set [1] relates to pheromone response pathway (PRP). As to the method:
To investigate the dose-response features of the selected promoters PMFA2, PFUS1, PAGA2, PFIG.1, PMFA1, PYCL076W, PHPF1, PIME4, PCSS1, PTDH3, PPGK1 and P6XLexOLEU2 upon GPCR stimulation the strains were pre-grown in SC (24 hrs.), whereafter, for each replicate, cells were transferred to 200 μL volumes comprising a 10-fold dilution series of α-factor (0-100 μM) (GenScript) dissolved in SC+1% DMSO, and stimulated for 5 hrs. (30° C., 250 r.p.m.). Flow cytometric measurement was done to quantify yEGFP levels (B525/45-A) and PRP-regulated morphological changes, denoted shmooing (SSC-A) using a NovoCyte Quanteon flow cytometer (Agilent). Data represents means of median fluorescence intensity (mMFI) for three biological replicates and standard deviations hereof. Two-way ANOVA with Tukey's multiple comparisons test was conducted for all conditions.

Data set [2] has as its system CD19. Put plainly: Yeast surface display (YSD) of CD19, antibody staining and flow cytometry. It is filed as cell-based, Saccharomyces cerevisiae. As to conditions: for CD19 level at unstimulated conditions: no GPCR stimulation; for fold upregulation of CD19 display relative to unstimulated condition: α-factor 0-100 μM, 20 hrs, promoter driving CD19 in DIX41 background. The procedure:
To investigate the different variants of CD19 modules, yeast cells were grown and, in some cases, stimulated to present CD19 differentially, whereafter they were stained with antibodies and assessed by flow cytometry. Flow cytometric measurement was done using a NovoCyte Quanteon flow cytometer (Agilent) to quantify CD19 by staining with mouse anti-CD19 (FMC63) (Absolute Antibody; Ab00613) and goat anti-mouse-AF647 (polyclonal) (Thermo Fisher; A-21236), detected in R667/30-H, as well as rabbit anti-HA (RM305) (Thermo Fisher; MA5-27915) and goat anti-rabbit-AF488 (polyclonal) (Thermo Fisher; A-11008), detected in B525/45-H (see FIG. 7), and to measure PRP-regulated morphological changes (SSC-H). […] Data represents means of median fluorescence intensity (mMFI) for three biological replicates and standard deviations hereof. Two-way ANOVA with multiple comparisons tests was conducted for all conditions. Histograms are representative replicates. No SSC-normalization was used in the evaluation of the effector module, unlike in Example 1, as it is the absolute response of all effects combined that constitute the total output that CAR T cells interpret and react to.
For conventional YSD using strain EBY100 and pCT-plasmid-based expression (Chao et al. 2006, Isolating and engineering human antibodies using yeast surface display. Nature Protocols, 1(2), 755-768), strains were pre-grown in SC −trp, then transferred to 5 mL SC −trp +2% Gal for induction of YSD or +2% Gluc as a negative control (24 hrs., 30° C., 250 r.p.m.). NALM6 was cultured in RPMI 1640 medium (ATCC modification) (Thermo Fisher) with 10% fetal bovine serum and 1% pen-strep (RPMI+10% FBS) at 37° C. with 5% CO2. For the investigation of PGAL1-titratability of DIX41 with pMAD58 and DIX74, strains were pre-grown in SC −ura and SC, respectively, then transferred to SC −ura and SC, respectively, with varying concentrations of galactose (0.0002%-2% Gal), using raffinose as compensating carbon source, and YSD was induced for 24 hrs. (30° C., 250 r.p.m.). Strains were similarly grown in 2% Gluc as negative controls. For the investigation of the strain library with constitutive and dynamically regulated expression of CD19 (Background strain/No YSD, PPGK1-Empty, PMFA2-CD19, PFUS1-CD19, PFIG.1-CD19, PMFA1-CD19, PHPF1-CD19, PTDH3-CD19, PPGK1-CD19) the strains were pre-grown in SC, whereafter, for each replicate, 50.000 cells were transferred to 300 μL volumes comprising a 10-fold dilution series of α-factor (0-100 μM) (GenScript) dissolved in SC+1% DMSO, and stimulated for 20 hrs. (30° C., 250 r.p.m.).

B1: PFUS1: pheromone-responsive Saccharomyces cerevisiae promoter, SEQ ID NO: 8, processing module (yEGFP strain DIX24, CD19 strain DIX45) (nucleic acid, listed as Saccharomyces cerevisiae)
DNA: TAATAATCAGAACTCCAACAATAGTCAACAGGGCTATAACCAATCCTATCAAAACGGTAACCAAAATAGTCAAGGTTACAATAATCAACAGTACCAAGGTGGCAACGGTGGTTACCAACAACAACAGGGACAATCTGGTGGTGCTTTTTCCTCATTGGCCTCCATGGCTCAATCTTACTTAGGTGGTGGACAAACTCAATCCAACCAACAGCAATACAATCAACAAGGCCAAAACAACCAGCAGCAATACCAGCAACAAGGCCAAAACTATCAGCATCAACAACAGGGTCAGCAGCAGCAACAAGGCCACTCCAGTTCATTCTCAGCTTTGGCTTCCATGGCAAGTTCCTACCTGGGCAATAACTCCAATTCAAATTCGAGTTATGGGGGCCAGCAACAGGCTAATGAGTATGGTAGACCGCAACAGAATGGTCAACAGCAATCCAATGAGTACGGAAGACCGCAATACGGCGGAAACCAGAACTCCAATGGACAGCACGAATCCTTCAATTTTTCTGGCAACTTTTCTCAACAGAACAATAACGGCAACCAGAACCGCTACTGAACGATGATTCAGTTCGCCTTCTATCCTTTGTTTACGTATTTGTTTATATATATAACTTTATTTTTTTTTATTAATTGGGCTGCAAGACAATTTTGTTGTCAGTGATGCCTCAATCCTTCTTTTGCTTCCATATTTACCATGTGGACCCTTTCAAAACAGAGTTGTATCTCTGCAGGATGCCCTTTTTGACGTATTGAATGGCATAATTGCACTGTCACTTTTCGCGCTGTCTCATTTTGGTGCGATGATGAAACAAACATGAAACGTCTGTAATTTGAAACAAATAACGTAATTCTCGGGATTGGTTTTATTTAAATGACAATGTAAGAGTGGCTTTGTAAGGTATGTGTTGCTCTTAAAATATTTGGATACGACATCCTTTATCTTTTTTCCTTTAAGAGCAGGATATAAGCCATCAAGTTTCTGAAAATCAAA
With B1, the “maximal absolute yEGFP output relative to orthogonal P6xLexOLEU2 ste12Δ0 strain” value in data set [1] (PFUS1 STE12+ strain) is 4.2 fold. In data set [1] (SSC-normalized promoter activity), the “promoter strength relative to P6xLexOLEU2 at maximal induction” value is recorded as 1.4 fold. Also, in data set [2], the “CD19 level at unstimulated conditions” value was “extremely low levels of CD19 at the limit of detection” and the “fold upregulation of CD19 display relative to unstimulated condition” value was 774±165 fold.

B2: PFIG.1: pheromone-responsive Saccharomyces cerevisiae promoter, SEQ ID NO: 9, processing module (yEGFP strain DIX25, CD19 strain DIX56) (nucleic acid, listed as Saccharomyces cerevisiae)
DNA: TTGAATGATCAACCAAACGCCGATATAGTCACTATTGGTGATAAAATTAAAATGCAGCTATTGAGAACCCATCCTAACAACATTAAATTGTCTATTAATGGAATTGGTAAAGATGCCCCAACTTTCCAAGAATCTGCTTTGATTGCCGATAAGTTATTGAGTGTCATGAAGGCCGGCACTTACCCAAAGATTTCCATTTTCTACAATGACCCAGTGTCTTCCCTATCTTTTGAACCATCTGAAAAACCGATCTTTAACGCCAAGACCATTGAACAATCCCCATCATTCGGCAAATTTGAGATCGACACGGACGCAAACGTTCCAAGAGATTTGTTTGAATATACTTTGGCTAACCAAATGTTGACAGCAATGGCTCAAGGTTATGCTGCTGAAATTTCCGCCAGAAGAAACGCTATGGATAACGCTTCCAAGAATGCCGGTGATATGATCAATCGTTACTCTATCTTGTACAACAGAACAAGACAAGCTGTCATTACTAATGAACTGGTTGATATTATTACTGGTGCTTCCTCTTTGGGATGATAAAAAAATCACCCTGCATTGCCTCTTTATTTGACGTTGTTTTTGTAGAACATGAAACGAATTTTGACTTGATGAGACGAAGTATATATCCAAAGAATACCTTAAATAGAAAAGGAAAGATAATAAATACTAAACACTACTATATATTCAGGTAAAATACAAAAATTATAACATTTTTAAAACTTTTTTTTTTTGAAAGTCCTTCTCGCTTTAGGATTTTTTCCCATTAAGATTATGATGGTTTCATGTATGTGTCAGTTAAAAAAAATATGGCTAAGTAGCAATGAAACGAACCAAGAAAATGAAAACAATATATAGTGCTGTTGAAATAACAAAGACATTGGTATATATTTGTAAAATGTCTGTTAAATGTTTTTTATCTCAGGTTCTTGCTTGTCTTTGGTAGAAGAAATTATAGTAAACAAACAAACAAACAAACAAAAAAAAAAAAAAAAAA
Turning to B2, in data set [1] (1 μM α-factor (peak)), the “maximum fold change of yEGFP, unnormalized” value was 516.8±83.0 fold. The “fold change of yEGFP, unnormalized” value in data set [1] (100 μM α-factor) is reported as 482.6±98.5 fold. Also, in data set [1] (100 μM α-factor (peak)), the “maximum fold change of yEGFP, SSC-normalized” value was determined as 128.8±7.2 fold. In data set [1] (α-factor 0-100 μM, 5 hrs, excluding PRP-induced expression boost), the “fold change of induction of yEGFP, SSC-normalized” value turned out to be 128.81±7.17 fold. Further, in data set [2], the “CD19 level at unstimulated conditions” value is recorded as “extremely low levels of CD19 at the limit of detection” and the “fold upregulation of CD19 display relative to unstimulated condition” value is listed as 629.6±98.6 fold.

B3: PTDH3: constitutive Saccharomyces cerevisiae promoter, SEQ ID NO: 10, processing module (DIX28, DIX49) (nucleic acid, listed as Saccharomyces cerevisiae)
DNA: CTATTTTCGAGGACCTTGTCACCTTGAGCCCAAGAGAGCCAAGATTTAAATTTTCCTATGACTTGATGCAAATTCCCAAAGCTAATAACATGCAAGACACGTACGGTCAAGAAGACATATTTGACCTCTTAACAGGTTCAGACGCGACTGCCTCATCAGTAAGACCCGTTGAAAAGAACTTACCTGAAAAAAACGAATATATACTAGCGTTGAATGTTAGCGTCAACAACAAGAAGTTTAATGACGCGGAGGCCAAGGCAAAAAGATTCCTTGATTACGTAAGGGAGTTAGAATCATTTTGAATAAAAAACACGCTTTTTCAGTTCGAGTTTATCATTATCAATACTGCCATTTCAAAGAATACGTAAATAATTAATAGTAGTGATTTTCCTAACTTTATTTAGTCAAAAAATTAGCCTTTTAATTCTGCTGTAACCCGTACATGCCCAAAATAGGGGGCGGGTTACACAGAATATATAACATCGTAGGTGTCTGGGTGAACAGTTTATTCCTGGCATCCACTAAATATAATGGAGCCCGCTTTTTAAGCTGGCATCCAGAAAAAAAAAGAATCCCAGCACCAAAATATTGTTTTCTTCACCAACCATCAGTTCATAGGTCCATTCTCTTAGCGCAACTACAGAGAACAGGGGCACAAACAGGCAAAAAACGGGCACAACCTCAATGGAGTGATGCAACCTGCCTGGAGTAAATGATGACACAAGGCAATTGACCCACGCATGTATCTATCTCATTTTCTTACACCTTCTATTACCTTCTGCTCTCTCTGATTTGGAAAAAGCTGAAAAAAAAGGTTGAAACCAGTTCCCTGAAATTATTCCCCTACTTGACTAATAAGTATATAAAGACGGTAGGTATTGATTGTAATTCTGTAAATCTATTTCTTAAACTTCTTAAATTCTACTTTTATAGTTAGTCTTTTTTTTAGTTTTAAAACACCAAGAACTTAGTTTCGAATAAACACACATAAACAAACAAA
As to B3, the “fold upregulation of CD19 display relative to unstimulated condition” value in data set [2] was determined as 3.1±0.3 fold. Further, in data set [2] (α-factor stimulation), the “change of absolute CD19 output on upregulation compared with that of PFUS1” value came out at 150.2%.
